Laboratory results as given in patent publication US20150125397A1, “DUAL SPECIFIC BINDING PROTEINS DIRECTED AGAINST IMMUNE CELL RECEPTORS AND AUTOANTIGENS” (ABBVIE INC., priority 2013, published 2015).

T1: mIgM (Mus musculus, UniProt P01872)
T1 sequence (P01872 1-454): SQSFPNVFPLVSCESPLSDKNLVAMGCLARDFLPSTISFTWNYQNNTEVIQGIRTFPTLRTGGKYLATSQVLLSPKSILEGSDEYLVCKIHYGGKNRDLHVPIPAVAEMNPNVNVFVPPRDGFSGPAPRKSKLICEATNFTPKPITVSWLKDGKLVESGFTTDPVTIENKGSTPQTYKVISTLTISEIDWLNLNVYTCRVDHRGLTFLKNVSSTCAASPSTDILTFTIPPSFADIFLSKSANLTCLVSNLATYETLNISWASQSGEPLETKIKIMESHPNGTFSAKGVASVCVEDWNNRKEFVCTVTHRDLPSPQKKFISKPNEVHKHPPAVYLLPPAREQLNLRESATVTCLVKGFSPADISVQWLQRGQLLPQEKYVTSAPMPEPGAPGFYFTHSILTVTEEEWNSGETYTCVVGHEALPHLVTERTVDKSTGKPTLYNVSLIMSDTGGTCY


What was measured:
mIgM = molecular target: T1, mIgM; experiment: IgM binding ELISA (mouse IgM); settings: for IgM Binding EC50: mIgM-coated ELISA, half-log dilution 10 μg/ml-0.01 μg/ml
Description: Reactivity of the DVD-Ig proteins with mIgM was determined by enzyme-linked immunosorbent assay (ELISA). Briefly, each well of an Ultra Cruz 96 well microtiter plate (Santa Cruz Biotechnology, Dallas, Tex.) was coated with mIgM at a concentration of 1 μg/ml in 100 μl of PBS. The plate was covered in plastic wrap and incubated overnight at 4° C. Each well of the plate was then washed 3× with 300 μl of PBST. After the final wash, 200 μl of blocking buffer (1% BSA in PBS) was added to each well and the plate incubated at RT for 2 hours. The plate was then washed as above. Rows B-H of the microtiter plate were filled with 100 μl of dilution buffer (1% BSA in PBST). The DVD-Ig proteins were then diluted to […] in dilution buffer and 147 μl of a DVD-Ig protein was added in duplicate to row A of a 96 well plate. For a ½ log dilution, 47 μl was transferred from row A to row B. The pipette tips were replaced with clean tips and 47 μl from row B was transferred to row C. The serial transfers were repeated as above until row G. To assess the binding of the secondary detection reagent to the coated IgM, the final transfer 47 μl was only transferred from G1-G10 to H1-H10 and wells H11 and H12 were left containing 100 μl of dilution buffer. To maintain a 100 μl assay volume, 47 μl was removed from wells H1-H10 and G11-G12 and discarded. After the serial dilution was completed, the plate was incubated for 1-2 hours at RT. The plate was washed as above and then 100 μl of horseradish peroxidase conjugated goat α-hIgG Fc specific, diluted 1:3,000 in dilution buffer, was added to each well. The plate was incubated for 1 hour at RT and then washed 4× as above. The plate was developed by adding 100 μl of 3′,3′,5′,5′-Tetramethylbenzidine (TMB) substrate solution to each well and incubating the plate in the dark for 10-15 minutes. The enzymatic reaction was stopped by adding 100 μl of 1M H2SO4 to each well. The plate was read at 450 nm on an EnVision 2102 multilabel reader (Perkin Elmer, Waltham, Mass.).
DVD-Ig proteins DVD3751-DVD3760 were characterized by IgM binding assay at half-log dilution starting at 10 μg/ml-0.01 μg/ml according to the method of Example 2.5.
IgM binding ELISA: Titrations of the DVD-Ig™ proteins (10 μg/ml to 0.01 μg/ml) were added to ELISA plates coated with murine IgM. Bound antibody was detected with biotinylated anti-human IgG and streptavidin-HRP. EC50 were calculated from the titration curve using Prism6.

AM14 WT B cells = experiment: [3H]thymidine incorporation, BCR/TLR9 stimulation of AM14 WT B cells; format: cell-based, mouse; design: key to 3H incorporation AM14 WT, relative result: (X)-(XXX) indicates relative results; (XX): (X)-(XXX) indicates relative results; (X)-(XXX) indicates relative results; level of 3H incorporation / 3H incorporation AM14 WT: dose or concentration left out as unconfirmed; settings: for 3H incorporation AM14 WT: 24 hours, then 6 hours pulse
Source text: The AM14 B cell receptor (BCR) transgenic mouse has been described previously (Sweet et al. (2010) Autoimmun 43(8): 607-18). Briefly, AM14 is a BCR comprising the AM14 heavy chain and the Vk8 light chain that recognizes murine IgG2a (mIgG2a) of the “a” allotype. Between 95-98% of B cells in a mouse positive for the AM14 heavy chain and Vk8 light chain express the AM14 BCR. To generate AM14 B cells that are deficient in TLR9, TLR7 or FcγRIIB, the AM14 and Vk8 genes were bred to the appropriate knock out mice.
Primary murine B cells were purified by positive selection using BD Imag™ CD45R/B220 magnetic particles (BD Biosciences, San Jose, Calif.). Briefly, B cells were cultured in RPMI containing, pencillin-streptomycin, β-mercaptoethanol, and 5% heat-inactivated fetal calf serum (FCS) in 96 well flat bottom plates at a density of 4×10^5 cells/well. For stimulation through the BCR and TLR9, B cells were treated with a titration of 0.3 μg/ml-0.03 μg/ml of PA4 or 5 μg/ml to 0.15 μg/ml of a DVD-Ig protein (DVD3751, DVD3752, DVD3754, DVD3755, DVD3759 and DVD3760), unless otherwise noted. Cells were also treated with 1 μg/ml 1826, an experimental ligand for TLR9, as a control. After 24 hours, the cells were pulsed for 6 hours with [3H]thymidine (Perkin Elmer, Waltham Mass.). Incorporation of [3H]thymidine was quantified via a liquid scintillation beta counter (Trilux 1450 MicroBeta, PerkinElmer) according to standard methods.
DVD-Ig proteins DVD3751-DVD3760 were characterized by ^3H incorporation at […] according to the method of Example 2.6.

potency in IgM binding assay (mIgM; among DVD3751-DVD3760) | IgM Binding EC50 (mIgM) [µg/mL] | IgM binding by direct binding ELISA (mIgM; Example 6, FIG. 8B) | Molecule | 3H incorporation AM14 WT, relative result (AM14 WT B cells) | 3H incorporation AM14 WT (AM14 WT B cells) | level of 3H incorporation (AM14 WT B cells; among DVD3751-DVD3760)
highest potency | 0.04116 | – | DVD3759: DVD-Ig: VD1 mIgM (B7.6), SL linker, VD2 DNA(PA4); heavy SEQ ID NO 64, light 65 (antibody) heavy: QVQLKESGPGLVKPSLTLSLTCTVSGFSLNGYGVIWVRQPPGKGLEWMGVIWGNGNTNYNSTLKSRLSISRDTSKSQVFLKMNNLQTEDTAMYFCARSENYYSSPGYFAYWGQGTLVTVSSASTKGPEVQLVESGGGLVKPGGSLKLSCVASGFTFSTYAMSWVRQTPTKRLEWVATISRGGVSTYYPDTVKGRFTISRDNAKNTLYLQMSSLRSEDTAMYYCARPPTIVTTWFAYWGQGTLVTVSS light: NTVMTQSPTSMFISVGDRVTMNCKASQNVGSDVDWYQQKTGQSPKLLISGTSNRYTGVPDRFTGSGSGTDFTLTISNMQAEDLAVYYCLQYNYNPTFGAGTKLELKRTVAAPSVFIFPPDVVMTQTPLSLPVSLGDQASISCRSSQSLVHSNGNTYLHWYLQKPGQSPKLLIYKVSNRFSGVPDRFSGSGSGTDFTLKISRVEAEDLGAYFCSQSTHVPYTFGGPTRLEIKR | (XX) | (18554) | –
– | 0.1167 | intermediate IgM binding affinity | DVD3754: DVD-Ig: VD1 DNA(PA4), SL linker, VD2 mIgM (B7.6); heavy SEQ ID NO 54, light 55 (antibody) heavy: EVQLVESGGGLVKPGGSLKLSCVASGFTFSTYAMSWVRQTPTKRLEWVATISRGGVSTYYPDTVKGRFTISRDNAKNTLYLQMSSLRSEDTAMYYCARPPTIVTTWFAYWGQGTLVTVSSASTKGPQVQLKESGPGLVKPSLTLSLTCTVSGFSLNGYGVIWVRQPPGKGLEWMGVIWGNGNTNYNSTLKSRLSISRDTSKSQVFLKMNNLQTEDTAMYFCARSENYYSSPGYFAYWGQGTLVTVSS light: DVVMTQTPLSLPVSLGDQASISCRSSQSLVHSNGNTYLHWYLQKPGQSPKLLIYKVSNRFSGVPDRFSGSGSGTDFTLKISRVEAEDLGAYFCSQSTHVPYTFGGPTRLEIKRTVAAPSVFIFPPNTVMTQSPTSMFISVGDRVTMNCKASQNVGSDVDWYQQKTGQSPKLLISGTSNRYTGVPDRFTGSGSGTDFTLTISNMQAEDLAVYYCLQYNYNPTFGAGTKLELKR | (XXX) | (35214) | highest level of ^3H incorporation
